In FireProtDB (doi:10.1021/bi00105a011):

B1: Lysozyme C, P61626 (parent)
chain: MKALIVLGLVLLSVTVQGKVFERCELARTLKRLGMDGYRGISLANWMCLAKWESGYNTRATNYNAGDRSTDYGIFQINSRYWCNDGKTPGAVNACHLSCSALLQDNIADAVACAKRVVRDPQGIRAWVAWRNRCQNRDVRQYVQGCGV

Variants of: B1
Settings: Homo sapiens; pH 3; 25 °C; GdnHCl; CD; glycine-HCl 40 mM; reversible: yes (100%); structure 1LZ1; whole UniProt chain shown

**Q.** Which results are given for MKALIVLGLVLLSVTVQGKVFERCELARTLKRLGMDGYRGISLANWMCLAKWESGYNTRATNYNAGDRSTDYGIFQINSRYWCNDGKTPGAVNACHLSCSALLQDNIADAVACAKRVVRDGQGIRAWVAWRNRCQNRDVRQYVQGCGV [P121G]?
**A.** ddG of mutation (higher = less stable): 0 kcal/mol; denaturant m value: 5.55 kcal/mol/M; denaturant midpoint (higher = more stable): 2.95 M; unfolding free energy: 9.7 kcal/mol

**Q.** What does the source list for MKALIVLGLVLLSVTVQGKVFERCELARTLKRLGMDGYRGISLANWMCLAKWESGYNTRATNYNAGDRSTDYGIFQINSRYWCNDGKTPGAVNACHLSCSALLQDNIAPAVACAKRVVRDPQGIRAWVAWRNRCQNRDVRQYVQGCGV [D109P]?
**A.** ddG of mutation (higher = less stable): 0.8 kcal/mol; denaturant m value: 5.42 kcal/mol/M; denaturant midpoint (higher = more stable): 2.78 M; unfolding free energy: 8.9 kcal/mol

**Q.** Which “ddG of mutation (higher = less stable)” value does the source give for MKALIVLGLVLLSVTVQGKVFERCELARTLKRLGMDGYRGISLANWMCLAKWESGYNTRATNYNAGDRSTDYGIFQINSRYWCNDGKTPGAVNACHLSCSALLQDNIADAVACAKRVVRDPQGIRAWPAWRNRCQNRDVRQYVQGCGV [V128P] here?
**A.** Its value is -2.4 kcal/mol.

**Q.** What about the denaturant m value of the same variant?
**A.** Its denaturant m value is 6.69 kcal/mol/M.

**Q.** And the “denaturant midpoint (higher = more stable)” value?
**A.** Its value is 3.05 M.

**Q.** What about the unfolding free energy of the same variant?
**A.** The unfolding free energy was 12.1 kcal/mol.

**Q.** Which results are given for MKALIVLGLVLLSVTVQGKVFERCELARTLKRLGMDGYRGISLANWMCLAKWESGYNTRATNYNAGDRSTDYGIFQINSRYWCNDGKTGGAVNACHLSCSALLQDNIADAVACAKRVVRDGQGIRAWVAWRNRCQNRDVRQYVQGCGV [P89G P121G]?
**A.** ddG of mutation (higher = less stable): 1.1 kcal/mol; denaturant m value: 5.48 kcal/mol/M; denaturant midpoint (higher = more stable): 2.64 M; unfolding free energy: 8.6 kcal/mol

**Q.** For MKALIVLGLVLLSVTVQGKVFERCELARTLKRLGMDGYRGISLANWMCLAKWESGYNTRATNYNPGDRSTDYGIFQINSRYWCNDGKTPGAVNACHLSCSALLQDNIADAVACAKRVVRDPQGIRAWVAWRNRCQNRDVRQYVQGCGV [A65P], which “ddG of mutation (higher = less stable)” value is on record?
**A.** Its value is -1.1 kcal/mol.

**Q.** What about the denaturant m value of the same variant?
**A.** The denaturant m value was 5.5 kcal/mol/M.

**Q.** What about the “denaturant midpoint (higher = more stable)” value of the same variant?
**A.** The value was 3.3 M.

**Q.** And the unfolding free energy?
**A.** Its unfolding free energy is 10.8 kcal/mol.

**Q.** Which results are given for MKALIVLGLVLLSVTVQGKVFERCELARTLKRLGMDGYRGISLANWMCLAKWESGYNTRATNYNAGDRSTDYGIFQINSRYWCNDGKTGGAVNACHLSCSALLQDNIADAVACAKRVVRDPQGIRAWVAWRNRCQNRDVRQYVQGCGV [P89G]?
**A.** ddG of mutation (higher = less stable): 1.2 kcal/mol; denaturant m value: 5.43 kcal/mol/M; denaturant midpoint (higher = more stable): 2.63 M; unfolding free energy: 8.5 kcal/mol
